Here are results for 3 variants from IntAct's records for PubMed 23940353.

To fix the notation:
B1: Cytohesin-3 (Homo sapiens), O43739-2 (parent)
chain: MDEDGGGEGGGVPEDLSLEEREELLDIRRRKKELIDDIERLKYEIAEVMTEIDNLTSVEESKTTQRNKQIAMGRKKFNMDPKKGIQFLIENDLLQSSPEDVAQFLYKGEGLNKTVIGDYLGERDEFNIKVLQAFVELHEFADLNLVQALRQFLWSFRLPGEAQKIDRMMEAFASRYCLCNPGVFQSTDTCYVLSFAIIMLNTSLHNHNVRDKPTAERFIAMNRGINEGGDLPEELLRNLYESIKNEPFKIPEDDGNDLTHTFFNPDREGWLLKLGGRVKTWKRRWFILTDNCLYYFEYTTDKEPRGIIPLENLSIREVEDPRKPNCFELYNPSHKGQVIKACKTEADGRVVEGNHVVYRISAPSPEEKEEWMKSIKASISRDPFYDMLATRKRRIANKK
B2: ADP-ribosylation factor 6 (Homo sapiens), P62330 (parent)
chain: MGKVLSKIFGNKEMRILMLGLDAAGKTTILYKLKLGQSVTTIPTVGFNVETVTYKNVKFNVWDVGGQDKIRPLWRHYYTGTQGLIFVVDCADRDRIDEARQELHRIINDREMRDAIILIFANKQDLPDAMKPHEIQEKLGLTRIRDRNWYVQPSCATSGDGLYEGLTWLTSNYKS

The variants in the assay “arf6_human ARF6, P62330” derive from B1. The conditions noted are these: with arf6_human ARF6, P62330.
In the assay “CYTH3, O43739-2” the parent is B2. The conditions noted are these: with CYTH3, O43739-2.
In the assay “CYTH1, Q15438-2” the parent is B2. The conditions noted are these: with CYTH1, Q15438-2.
The assay “CYTH2, Q99418-2” covers variants of B2. The conditions noted are these: with CYTH2, Q99418-2.
CYTH2, Q99418-2, sequence (Q99418 other isoform, or with tags, fused parts or gaps): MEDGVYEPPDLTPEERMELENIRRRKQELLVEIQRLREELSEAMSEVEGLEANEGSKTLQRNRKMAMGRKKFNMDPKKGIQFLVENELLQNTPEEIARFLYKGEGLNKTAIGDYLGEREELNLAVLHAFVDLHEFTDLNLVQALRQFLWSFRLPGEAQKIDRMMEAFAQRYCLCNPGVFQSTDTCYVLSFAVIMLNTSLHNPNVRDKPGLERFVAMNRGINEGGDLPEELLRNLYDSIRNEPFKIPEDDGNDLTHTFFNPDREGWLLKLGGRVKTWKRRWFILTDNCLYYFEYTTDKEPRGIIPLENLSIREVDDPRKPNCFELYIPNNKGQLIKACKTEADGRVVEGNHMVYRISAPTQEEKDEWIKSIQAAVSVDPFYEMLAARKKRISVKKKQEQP

CYTH1, Q15438-2, sequence (Q15438 other isoform, or with tags, fused parts or gaps): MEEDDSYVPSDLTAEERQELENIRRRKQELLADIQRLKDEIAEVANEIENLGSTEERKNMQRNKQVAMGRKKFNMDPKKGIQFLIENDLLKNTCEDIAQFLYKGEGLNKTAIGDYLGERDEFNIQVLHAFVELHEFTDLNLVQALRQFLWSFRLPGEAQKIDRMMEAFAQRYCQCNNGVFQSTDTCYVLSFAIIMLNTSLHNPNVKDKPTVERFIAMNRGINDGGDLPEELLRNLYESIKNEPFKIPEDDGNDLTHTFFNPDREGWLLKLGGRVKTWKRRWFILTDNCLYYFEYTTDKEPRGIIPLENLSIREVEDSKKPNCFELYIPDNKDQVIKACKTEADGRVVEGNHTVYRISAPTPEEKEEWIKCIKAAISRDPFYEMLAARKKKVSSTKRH

As for L388A, the “effect of a mutation on the interaction” value with arf6_human ARF6, P62330 is given as “decreasing interaction strength”.

Take K392A: the “effect of a mutation on the interaction” value with arf6_human ARF6, P62330 is reported as “decreasing interaction strength”.

As to Q67L, the “effect of a mutation on the interaction” value is reported as “with no effect” in the assay with CYTH3, O43739-2; “with no effect” in the assay with CYTH1, Q15438-2; “with no effect” with CYTH2, Q99418-2.
